Test results: paper PMC5955193, “Streptococcus gallolyticus subsp. gallolyticus endocarditis isolate interferes with coagulation and activates the contact system” (Virulence, 2017)

Experiments:
[1] = biological target: T1, human coagulation factor XII (human); experiment: MST; NT-647 labeled Gallo2179 kept constant (estimated 50-300 nM); 16-step serial dilution of non-labeled FXII (6.25 μM - 0.19 nM) or HK (4.15 μM - 0.12 nM); Monolith NT.115; three independent measurements; conditions: both partners purified
T1 construct: coagulation factor XII (serine protease zymogen), human; also called FXII; contact factor XII; source: bought: Haemochrom Diagnostica, Germany

[2] = biological target: T1, human coagulation factor XII; experiment: SPR; Biacore 3000, CM3 chip, Gallo2179 immobilised (1900 RUs) by amine coupling; FXII as analyte at 12.5 - 200 nM; 25°C, PBS running buffer; 1:1 Langmuir global fit; conditions: both partners purified

B1: Pil1 collagen-binding adhesin Gallo2179 of Streptococcus gallolyticus subsp. gallolyticus UCN34, recombinant (natural protein)
chain: MFYYLGEGIINFRKLFIALVLIIFSFFTVSEVRAADVSNRVTSLTVATTELQDGGRTTVRVEFNDRAGKIHSGDTIEVTWSISNSIYLNGYTKSIPLTIQGVNVGTLEVTEHNAIFKFNSNIETMENVSGWGEFEVIGRNVTNTSSENTGTAVVQVGGYSQNISITKPQSGTGTSSFYYKTGDIQPSDTNRVRWFLLVNNNKEYVESDVTIEDDIQSGQTLDMSSFDITISGYQNKRFVGESALEEFKRSCPNSSIEITQKSEGGHISIRLSRDDVILNTISIHYKTKILDFDQEKFANNSNITYKPLYKDWVTNKESNYEVVNVNANGGVDGSRYTSVTVNKVWNDKDNQDGKRSDKVVIQLLADGQEISGKQLELSEENGWSGTFEKLNKYHSDNTLITYTVKEVTDLPDYQTTVSENSKNNYTITNTHIPEVIDLSGKKIWDDNNNQDGIRPETITVHLLANGVDTGQVKTVSKSDNWEYQFKDLPKYQNGEKVVYTVSEDVVVGYEMSVSGMNLTNTHTPEVTNILISKYWDDNDDKLKKRPESIQITLHANGKEYQTVTLTASNQWQYEFKDLPKYKDGEKIAYTVTEADVPNYQLISIEEDESGNWKITNKVEESYLFPNTGGKGISGYYTVGIVLLLSIGLLFLKKFIGDY
modifications: fluorescent label NT-647 covalently attached by NHS coupling (in the MST only)
Kd [1]: 0.0129 µM
Kd [2]: 0.014 µM
